# B1: HBS monoclonal antibody (antibody, V domains shown)
# VH: VQLQQSGPELVKPGASVKMSCKASGYTLTDYVIGWVKQRTGQGLEWIGEVYPGSVYTSYNEKFKGKATLTADKSSNTAYMQLSGLTSDDSAVYFCAYDGYSPFDYWGQGTTLTVSS
# VL: NIVMTQSPKSMSMSVGERVTLTCKASENVGTYVSWFQQKPGQSPKLLIYGASNRYIGVPDRFTGSGSATDFTLTISSVQAEDLAEYHCGQSYNYPHTFGGGTKLVIKR
# B2: pre-S2 monoclonal antibody (antibody, V domains shown)
# VH: QVQLQQPGTELVKPGTSVKLSCKASGYTFTSYWMHWVKLRPGQGFEWIGEINPSNGITNYNEKFKRKATLTVDKSSTTAYMQLSSLTFEDSAVYYCTIGYDYGSNYEAMDFWGQGTSVTVSS
# VL: DIVMTQAAFSNPVTLGTSASMSCRSSKSLLHSNGITYLYWYLQKPGQSPQLLIYQMSNLASGVPDRFSSGGSGTDFTLRISRVEAEDVGVYYCAQNLELPWTFGGGTKLEIK
# How the values were obtained:
# [1] = target: large surface protein of hepatitis B virus (LHBS), full-length (hepatitis B virus); assay: chemiluminescent sandwich ELISA on pooled HBsAg(+) sera; pre-S1 antibody coated, HBS antibody detecting (platform 2)
# [2] = target: pre-S region E. coli recombinant protein (hepatitis B virus); assay: chemiluminescent ELISA, serially diluted antigen coated, antibody 1:2000
# Chain of pre-S region E. coli recombinant protein (hepatitis B virus) (P03141 2-174): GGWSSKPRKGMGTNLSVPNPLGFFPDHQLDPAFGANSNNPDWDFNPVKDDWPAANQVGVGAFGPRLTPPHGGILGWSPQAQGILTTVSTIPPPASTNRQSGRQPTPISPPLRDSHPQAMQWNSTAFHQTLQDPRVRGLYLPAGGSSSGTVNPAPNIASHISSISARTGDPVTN
# [3] = target: large surface protein of hepatitis B virus (LHBS), full-length (hepatitis B virus); assay: chemiluminescent sandwich ELISA on pooled HBsAg(+) sera; pre-S1 antibody coated, pre-S2 antibody detecting (platform 1)
Binder,limit of quantification (LOQ) [1] [ng/mL],limit of linearity (LOL) [2] [ng/mL],limit of quantification (LOQ) [2] [ng/mL],limit of quantification (LOQ) [3] [ng/mL]
B1,1.7,–,–,–
B2,–,1.56,0.04,13.5
